This series concerns the target NF-kB p65 (RelA) homodimer (UniProt Q04206 Q04206:1-551). Briefly: EMSA; competitive EMSA; 5 to 15-fold tighter to p65/p65 than p50 homodimer. Particulars: chain copies: 2 (stated homodimer). The protocol: The example used to illustrate that when only one or two dithioate linkages were placed in a molecule, the inhibition/binding of the oligonucleotide to recombinant protein was similar to that of the unsubstituted aptamer illustrates is shown in FIG. 3—as the substitutions of dithiophosphate were increased, binding by the [S₂]-ODN oligonucleotide increased dramatically. For example, in a standard competitive binding assay, ³²P-IgκB promoter element ODN is incubated with recombinant p65 and varying amounts of XBY aptamer competitor. The relative binding ability of the unlabeled ODNs is determined by the concentration needed to effectively compete with the standard labeled ODN. XBY1 through 6 correspond to CK-14 aptamers with 1 through 6 dithiophsphate substitutions, respectively. The present inventors, according to an embodiment of this invention, developed an oligonucleotide containing six dithioate linkages on the two strands, termed XBY-6.
Competitive binding of XBY-6 to p65 homodimers is performed using EMSAs. XBY-6 concentrations are 1.95 (triangle), 3.89 (open circle), and 7.77 (closed circle).
A general note: A gel shift assay detects complexes by their altered migration in electrophoresis.

Chain of NF-kB p65 (RelA) homodimer (Q04206 whole entry, one chain of several): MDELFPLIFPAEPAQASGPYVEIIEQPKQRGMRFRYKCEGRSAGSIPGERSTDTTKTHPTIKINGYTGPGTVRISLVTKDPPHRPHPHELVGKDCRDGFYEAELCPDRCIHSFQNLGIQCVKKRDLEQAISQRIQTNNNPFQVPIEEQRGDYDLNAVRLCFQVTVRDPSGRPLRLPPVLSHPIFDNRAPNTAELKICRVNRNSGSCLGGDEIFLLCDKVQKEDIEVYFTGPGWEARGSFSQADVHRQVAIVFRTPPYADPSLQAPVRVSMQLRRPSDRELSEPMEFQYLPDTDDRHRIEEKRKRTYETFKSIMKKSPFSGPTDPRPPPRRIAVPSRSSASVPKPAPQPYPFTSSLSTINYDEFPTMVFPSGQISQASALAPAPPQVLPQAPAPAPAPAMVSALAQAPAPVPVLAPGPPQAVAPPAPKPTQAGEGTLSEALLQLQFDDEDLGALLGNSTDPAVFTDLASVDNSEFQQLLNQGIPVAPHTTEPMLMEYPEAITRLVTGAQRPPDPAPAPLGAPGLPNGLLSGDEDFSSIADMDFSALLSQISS

B1: XBY-6 (dsDNA)
DNA 1: CCAGGAGATTCCAC
DNA 2: GTGGAATCTCCTGG
modifications: six phosphorodithioate linkages on the two strands, positions shown only in figures
Consider B1, for which the Kd was 1.44 nM. That is a single-digit nanomolar value.

For orientation: Kd means the free concentration of one partner at which half of the binding sites on the other are occupied at equilibrium, for simple one-to-one binding.

The values are drawn from patent US20030162190, “Phosphoromonothioate and phosphorodithioate oligonucleotide aptamer chip for functional proteomics” (published 2003).
